Numbering of substitutions follows the chain as printed. Several values for one entry are separate records, joined by “and”; a condition that tells them apart may be missing. Equal values may be shown once.
B1: antibody-drug conjugate ADC-1-X1 (hu3F8-2-X1) (antibody, human IgG1, kappa, V domains shown)
VH: QVQLQESGPGLVKPSETLSLTCTVSGYSITSAYYWNWIRQPFGKGLEWMGYISYDGRNNFNPSLKNRVTISRDTSKNQFSLKLSSVTAADTAVYYCARDGDYDYFDYWGQGTTVTVSS
VL: DIQMTQSPSSLSASVGDRVTITCRASQDISNYLNWYQQKPGKAPKLLIYYTSILHSGVPSRFSGSGSGTDYTFTISSLQPEDIATYFCQQGDTLPPTFGGGTKLEIKR
modifications: linker-payload X1 coupled after TCEP reduction; positions not given; linker-payload X1 coupled after TCEP reduction; positions not given; DAR 7.12 for the whole antibody
B2: antibody-drug conjugate ADC-1-X2 (hu3F8-2-X2) (antibody, human IgG1, kappa, V domains shown)
VH: B1 VH
VL: B1 VL
modifications: linker-payload X2 coupled after TCEP reduction; positions not given; linker-payload X2 coupled after TCEP reduction; positions not given; DAR 7.53 for the whole antibody
B3: murine 3F8 antibody (antibody, V domains shown)
VH: DVQLQESGPGLVKPSQSLSLTCSVTGYSITSAYYWNWIRQFPGDKLEWMGYISYDGRNNFNPSLKNRISITRDTSKNQFFLKLNSVTSGDTATYYCARDGDYDYFDYWGQGTTLTVSS
VL: DIQMTQTTSSLSASLGDRVTISCRASQDISNYLNWYQQKPDGTFKLLIYYTSILHSGVPSRFSGSGSGTDYSLTISNLEQEDIATYFCQQGDTLPPTFGAGTKLELK
notes: Mouse hybridoma antibody, made by hybridoma or recombinantly; also called m3F8
B4: chimeric 3F8 antibody (antibody, human IgG1, V domains shown)
VH: B3 VH
VL: B3 VL
notes: also called ch3F8; Chimeric antibody
B5: humanized 3F8 antibody hu3F8-2 (antibody, human IgG1, kappa, V domains shown)
VH: B1 VH
VL: B1 VL
notes: also called Clone 2; clone-2
B6: humanized 3F8 antibody hu3F8-1 (antibody, human IgG1, kappa, V domains shown)
VH: B1 VH with F42P, M49I, R72V
VL: B1 VL
notes: also called Clone 1; clone-1
B7: humanized 3F8 antibody hu3F8-3 (antibody, human IgG1, kappa, V domains shown)
VH: B1 VH with T69S, V93T
VL: B1 VL
notes: also called Clone 3; clone-3

Tests used:
[1] = target: HER3 on tumor cell lines (NCI-N87, MDA-MB-468, MDA-MB-453, HCC1569 and other cells with different HER3 surface levels) (UniProt P21860); test: cell-based or functional assay
[2] = target: HER3 on tumor cell lines (NCI-N87, MDA-MB-468, MDA-MB-453, HCC1569 and other cells with different HER3 … (UniProt P21860 20-1342, limits assumed)); test: cell-based or functional assay
cynomolgus monkey HER3 = cynomolgus monkey HER3 (cynomolgus monkey, UniProt G7PIG5 20-643); test: ELISA
Sequence of cynomolgus monkey HER3 (G7PIG5 entry or part of it): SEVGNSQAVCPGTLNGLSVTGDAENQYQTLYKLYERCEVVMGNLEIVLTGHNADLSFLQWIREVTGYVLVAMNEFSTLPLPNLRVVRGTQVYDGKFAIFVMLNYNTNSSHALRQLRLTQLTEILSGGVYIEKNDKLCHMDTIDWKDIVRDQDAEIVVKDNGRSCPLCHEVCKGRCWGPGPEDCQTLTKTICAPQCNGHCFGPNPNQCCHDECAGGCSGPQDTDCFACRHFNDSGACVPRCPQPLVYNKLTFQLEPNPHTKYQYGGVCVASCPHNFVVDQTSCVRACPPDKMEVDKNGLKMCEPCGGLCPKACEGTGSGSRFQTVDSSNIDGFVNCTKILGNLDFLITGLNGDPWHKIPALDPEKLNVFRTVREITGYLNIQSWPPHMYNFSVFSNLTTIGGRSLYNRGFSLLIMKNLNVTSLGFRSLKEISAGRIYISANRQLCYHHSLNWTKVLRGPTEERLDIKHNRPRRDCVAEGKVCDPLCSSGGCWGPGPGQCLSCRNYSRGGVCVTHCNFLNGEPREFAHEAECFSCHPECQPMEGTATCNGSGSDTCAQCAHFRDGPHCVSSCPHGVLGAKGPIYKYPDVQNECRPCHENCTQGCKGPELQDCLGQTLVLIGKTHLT

human HER3-huFc [3] = target: T1, human HER3-huFc (human, UniProt P21860 20-643); test: ELISA
T1 construct: also called huHER3; not shown: human Fc (huFc)

human HER3-huFc [4] = target: T1, human HER3-huFc; test: ELISA, antigen coated
Description: (§1) ELISA assay: human HER2-ex-huFc, human HER3-huFc, and human EGFR-his were diluted to 2 μg/mL and 50 μL/well in a 96-well plate and incubated at 4° C. overnight. The plate was washed with 0.5×PBST, then incubated with 100 μL of a blocking buffer (PBS+3% BSA) at 37° C. for 2 h, and washed with 0.5×PBST. The 3F8 antibody was diluted with the blocking buffer in a 1:3 serial gradient, added at 50 μL/well, incubated at 37° C. for 40-50 min, and then washed with 0.5×PBST. […] Prior to assay, 50 μL of luminol buffer A+B was added to each well in a 1:1 mix.
EC50 of murine 3F8 binding to human HER3, HER2, and EGFR was analyzed using GraphPad Prism 6.0.

human HER2-ex-huFc = target: T2, human HER2-ex-huFc (human, UniProt P04626 23-652); test: ELISA on coated antigen, luminescence readout
T2 construct: extracellular domain; 'ex' is read as extracellular domain; also called huHER2; not shown: human Fc (huFc)
Description: as §1
(§2) The binding affinities of murine 3F8 to human HER3, HER2 and EGFR were determined by ELISA.

human EGFR-his = target: T3, human EGFR-his (human, UniProt P00533 25-645); test: ELISA on coated antigen, luminescence readout
T3 construct: also called huEGFR; not shown: His tag
Description: as §1, §2

mouse HER3 = mouse HER3 (mouse, UniProt Q61526 20-641, limits assumed); test: ELISA on coated antigen, luminescence readout
Sequence of mouse HER3 (Q61526 20-641 limits assumed): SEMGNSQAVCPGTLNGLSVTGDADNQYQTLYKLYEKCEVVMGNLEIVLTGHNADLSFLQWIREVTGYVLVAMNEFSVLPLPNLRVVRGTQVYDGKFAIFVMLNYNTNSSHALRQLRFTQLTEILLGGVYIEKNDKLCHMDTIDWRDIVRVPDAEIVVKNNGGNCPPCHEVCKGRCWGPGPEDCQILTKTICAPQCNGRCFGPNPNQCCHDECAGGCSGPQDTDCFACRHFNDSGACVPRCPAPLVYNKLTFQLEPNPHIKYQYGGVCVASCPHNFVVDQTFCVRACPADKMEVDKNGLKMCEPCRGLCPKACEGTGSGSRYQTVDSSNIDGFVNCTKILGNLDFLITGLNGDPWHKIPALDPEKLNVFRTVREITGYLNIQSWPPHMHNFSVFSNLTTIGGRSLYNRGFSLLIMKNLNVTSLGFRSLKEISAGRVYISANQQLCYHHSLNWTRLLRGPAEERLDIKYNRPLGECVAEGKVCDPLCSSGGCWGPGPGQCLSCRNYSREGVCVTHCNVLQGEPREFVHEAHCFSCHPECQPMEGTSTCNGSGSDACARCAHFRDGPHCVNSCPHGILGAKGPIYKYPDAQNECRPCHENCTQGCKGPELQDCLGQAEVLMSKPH

rat HER3 = rat HER3 (rat, UniProt Q62799 20-641, limits assumed); test: ELISA on coated antigen, luminescence readout
Sequence of rat HER3 (Q62799 20-641 limits assumed): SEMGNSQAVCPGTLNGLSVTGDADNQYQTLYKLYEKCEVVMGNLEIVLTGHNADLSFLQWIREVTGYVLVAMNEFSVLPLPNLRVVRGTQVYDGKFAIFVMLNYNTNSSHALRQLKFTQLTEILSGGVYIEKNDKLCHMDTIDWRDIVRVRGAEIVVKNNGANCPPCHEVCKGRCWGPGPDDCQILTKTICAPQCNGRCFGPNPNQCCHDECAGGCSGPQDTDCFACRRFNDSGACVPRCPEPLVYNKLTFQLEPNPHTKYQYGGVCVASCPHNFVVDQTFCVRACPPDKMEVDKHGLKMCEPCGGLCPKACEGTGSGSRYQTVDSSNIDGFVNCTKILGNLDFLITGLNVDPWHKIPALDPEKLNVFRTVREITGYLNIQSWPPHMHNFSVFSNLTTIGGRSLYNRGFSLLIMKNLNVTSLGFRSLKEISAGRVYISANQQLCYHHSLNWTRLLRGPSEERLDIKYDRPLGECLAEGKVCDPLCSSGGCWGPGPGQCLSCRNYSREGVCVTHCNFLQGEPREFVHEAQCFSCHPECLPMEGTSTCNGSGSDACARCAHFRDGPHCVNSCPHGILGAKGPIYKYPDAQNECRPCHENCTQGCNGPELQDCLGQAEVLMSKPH

[5] = target: T4, human EGFR expressed on SP2/0 cells (human, UniProt P00533 25-1210); test: flow cytometry (FACS) on SP2/0 cells overexpressing human EGFR, PE anti-mouse secondary antibody
T4 construct: whole, on cells; also called SP2/0-EGFR cells
Description: (§3) FACS assay: the cultured cells were digested with 0.25% trypsin-EDTA and then centrifuged at 1500 rpm for 5 min. The cell pellets were regenerated into 5×10⁶ cells/mL using a PBS FACS solution containing 5% FBS and 0.2% ProClin300. 50 μL of the cell suspension was incubated with 100 μL of the primary antibody at a concentration of 1 μg/mL on ice for 1 h. The cells were washed twice with the FACS solution. The pellets were regenerated using 100 μL of a FACS solution containing goat anti-mouse IgG-PE (1:1000 dilution) and incubated on ice in the dark for 1 h. The cells were then washed twice and resuspended in 200 μL of the FACS solution.
(§4) Murine 3F8 was co-incubated with SP2/0 wild-type cells or cells overexpressing HER3, HER2 or EGFR. The binding strength was measured in a FACS instrument with a PE-anti-mouse secondary antibody.

[6] = target: T5, human HER2 expressed on SP2/0 cells (human, UniProt P04626 23-1255); test: flow cytometry (FACS) on SP2/0 cells overexpressing human HER2, PE anti-mouse secondary antibody
T5 construct: whole, on cells; also called SP2/0-HER2 cells
Description: as §3, §4

human HER3-huFc [7] = target: T1, human HER3-huFc; test: ELISA, 0 days at 40 °C
Description: (§5) Antibody stability test: the purified antibody at 5 mg/mL was stored at 4° C. as regular practice, incubated at 40° C. for 7 days and 14 days for heat stability evaluation, transferred to a glycine solution at pH 3.5 for regeneration, and stored for 2, 4 and 6 h for acid stability evaluation, or subjected to repeated freeze-thaw treatments for 4 or 6 cycles for freeze-thaw stability evaluation. Aggregation was measured by SEC-HPLC, and binding affinity was determined by ELISA.
(§6) The chimeric antibody 3F8 was subjected to parallel assay.

human HER3-huFc [8] = target: T1, human HER3-huFc; test: ELISA, 0 freeze-thaw cycles
His-HER3 = target: T6, His-HER3 (UniProt P21860 20-643, limits assumed); test: SPR, Biacore T200, antibody captured on protein A chip, His-HER3 as analyte
T6 construct: Analyte of the Biacore assay; not shown: His tag
Description: Affinity assay by surface plasmon resonance (SPR): antibody kinetics and affinity were determined using Biacore T200. Briefly, the recombinant human HER3 antibody was immobilized on a protein A chip (GE, Cat. 29-1275-5).
The binding affinity of humanized 3F8 (hu3F8) and chimeric 3F8. Binding kinetics of 3 humanized 3F8 clones and chimeric 3F8 were determined by Biacore. Three humanized 3F8 clones (clone 1, clone 2 and clone 3) had different heavy chains and one identical light chain. Clone 1, clone 2, and clone 3 corresponded to hu3F8-1, hu3F8-2, and hu3F8-3, respectively.

human HER3-huFc [9] = target: T1, human HER3-huFc; test: ELISA after 7 days at 40 °C
Description: as §5, §6

human HER3-huFc [10] = target: T1, human HER3-huFc; test: ELISA after 14 days at 40 °C
Description: as §5, §6

human HER3-huFc [11] = target: T1, human HER3-huFc; test: ELISA after 3 freeze-thaw cycles
human HER3-huFc [12] = target: T1, human HER3-huFc; test: ELISA after 5 freeze-thaw cycles
human HER3-huFc [13] = target: T1, human HER3-huFc; test: ELISA after 0 h of incubation at pH 3.5
Description: as §5
(§7) EC50 was determined by ELISA.

human HER3-huFc [14] = target: T1, human HER3-huFc; test: ELISA after 2 h of incubation at pH 3.5
Description: as §5, §7

human HER3-huFc [15] = target: T1, human HER3-huFc; test: ELISA after 4 h of incubation at pH 3.5
Description: as §5, §7

human HER3-huFc [16] = target: T1, human HER3-huFc; test: ELISA after 6 h of incubation at pH 3.5
Description: as §5, §7

human HER3-huFc [17] = target: T1, human HER3-huFc; test: ELISA after 0 h of incubation at pH 3.5; 0 h of incubation at pH 3.5 (untreated time point)
Description: as §5, §7

| Molecule | EC50 (human HER3-huFc [7]) [µg/mL] | EC50 (human HER3-huFc [8]) [µg/mL] | Kd (His-HER3) [nM] | koff (His-HER3) [s⁻¹] | kon (His-HER3) [M⁻¹ s⁻¹] | EC50 (human HER3-huFc [9]) [µg/mL] | EC50 (human HER3-huFc [10]) [µg/mL] | EC50 (human HER3-huFc [11]) [µg/mL] | EC50 (human HER3-huFc [12]) [µg/mL] | EC50 (human HER3-huFc [14]) [µg/mL] | EC50 (human HER3-huFc [15]) [µg/mL] | EC50 (human HER3-huFc [16]) [µg/mL] | further results |
| --- | --- | --- | --- | --- | --- | --- | --- | --- | --- | --- | --- | --- | --- |
| Reference ADC-1 (U3-1402) (antibody) |  |  |  |  |  |  |  |  |  |  |  |  | HCC1569 IC50 (nM), inhibition of in vitro proliferation (CTG, 6 days) [1]: 40.7 nM; MDA-MB-453 IC50 (nM), inhibition of in vitro proliferation (CTG, 6 days) [1]: 9.62 nM |
| B1 |  |  |  |  |  |  |  |  |  |  |  |  | HCC1569 IC50 (nM), inhibition of in vitro proliferation (CTG, 6 days) [2]: 0.115 nM; MDA-MB-453 IC50 (nM), inhibition of in vitro proliferation (CTG, 6 days) [2]: 0.042 nM |
| B2 |  |  |  |  |  |  |  |  |  |  |  |  | HCC1569 IC50 (nM), inhibition of in vitro proliferation (CTG, 6 days) [2]: 5.17 nM; MDA-MB-453 IC50 (nM), inhibition of in vitro proliferation (CTG, 6 days) [2]: 0.094 nM |
| B3 |  |  |  |  |  |  |  |  |  |  |  |  | EC50 (cynomolgus monkey HER3): 0.185 nM and 0.0278 µg/mL; EC50 (human HER3-huFc [3]): 0.164 nM and 0.0245 µg/mL; EC50 (human HER3-huFc [4]): 0.11 nM and 0.0165 µg/mL; binding result (human HER2-ex-huFc): no binding (tested: about 10^1.2 nM (about 16 nM)); binding result (human EGFR-his): no binding (tested: about 10^1.2 nM (about 16 nM)); binding result (mouse HER3): no binding (tested: about 10^1.2 nM (about 15 nM)); binding result (rat HER3): no binding (tested: about 10^1.2 nM (about 15 nM)); binding result [5]: no binding; binding result [6]: no binding |
| B4 | 0.0474 | 0.0471 | 0.624 | 0.000391 | 628000 |  |  |  |  |  |  |  |  |
| B5 | 0.0454 | 0.0425 | 0.492 | 0.000328 | 666000 | 0.0481 | 0.052 | 0.0467 | 0.0438 | 0.0483 | 0.0445 | 0.0412 | EC50 (human HER3-huFc [13]): 0.045 µg/mL |
| B6 | 0.0392 | 0.0454 | 1.09 | 0.000612 | 560000 | 0.0423 | 0.041 | 0.0443 | 0.0386 | 0.0381 | 0.0409 | 0.039 | EC50 (human HER3-huFc [17]): 0.0387 µg/mL |
| B7 | 0.0424 | 0.0423 | 0.54 | 0.000348 | 644000 | 0.047 | 0.0413 | 0.0374 | 0.0336 | 0.0417 | 0.0394 | 0.0381 | EC50 (human HER3-huFc [13]): 0.0387 µg/mL |
